This passage reports accumulation of transduced T cells over multiple stimulations with irradiated CD200+ FBL and lysis of CD200+ FBL cells (CFSE-based cytotoxicity assay) results from US20180044404A1.

The test addresses CD200 on FBL cells transduced with CD200 (CD200+ FBL). As to the kind of experiment: cell-based or functional assay.

Consider “CD200R-9aas-CD28Cys (murine construct V) (from UniProt Q9ES57 26-229; P31041 142-150; P31041 151-218)”, for which the accumulation of transduced T cells over multiple stimulations with irradiated CD200+ FBL turned out to be 3 fold and the lysis of CD200+ FBL cells (CFSE-based cytotoxicity assay) is > 40%.
